Reference: patent US7740850B2, “PDGFRβ-specific antibodies” (ImClone, LLC, priority 2007, dated 2010)

Assays:
[1] = system: Akt and p44/42 MAP kinase in D122 cells; assay: PDGF-BB-stimulated downstream signaling (Western blot); assay type: cell-based, mouse
From the text: To study the downstream signaling, the cell lysate from the above treatment were resolved by a 4-12% NuPAGE Bis-Tris gel. Phosphorylated Akt and p44/42 mitogen-activated protein kinase (MAPK) were detected using an anti-phospho-Akt and an anti-phospho-p44/p42 MAPK and p44/p42 MAPK, respectively (eBioscience, San Diego, Calif.).

mPDGFRβ = mPDGFRβ (Mus musculus, UniProt P05622); assay: Antibody affinity determination (BIAcore, surface plasmon resonance); assay type: binding
Experimental: (§1) Antibody affinity determination. The binding kinetics of various Fab and IgG to mPDGFRβ were measured using a BIAcore 3000 biosensor (BIACORE, Inc., Uppsala, Sweden). Briefly, mPDGFRβ was immobilized onto a sensor chip and soluble antibodies were injected at concentrations ranging from 1.5 nM to 100 nM. Sensorgrams were obtained at each concentration and were evaluated using the program, BIA Evaluation 2.0. The affinity constant, Kd, was calculated from the ratio of dissociation rate (koff)/association rate (kon) (Lu, D. et al., 2002; Zhu, Z. et al., 1998; Loizos, N. et al., 2005).

[2] = system: BxPC-3 pancreatic carcinoma xenograft; assay: Subcutaneous tumor xenograft model; assay type: in vivo, mouse; conditions: for Tumor Volume T/C %: BxPC3 xenograft, monotherapy
Experimental: (§2) Six xenograft models, SK-OV-3, OV-CAR-8, BxPC-3, OV-CAR-5, Caki-1 and NCI-H460 (A to F, respectively) were used to examine the effects of 1B3 on xenograft tumors in athymic nude mice. Mice with established tumors (˜250-300 mm^3) were randomly grouped and treated with 1B3, normal human IgG, or saline by intraperitoneal injection twice weekly (except for BxPC-3 model where the mice were treated three times a week) at the dose indicated.
(§3) Subcutaneous xenografts of BxPC-3 (A) or 5×10^6 NCI-H460 (B) were established in female athymic (nu/nu) mice. When tumors reached ˜300-350 mm^3, mice were randomized and divided into four groups (n=12), and treated with USP saline, 40 mg/kg of 1B3, 40 mg/kg of DC101 or 40 mg/kg 1B3 plus 40 mg/kg DC101, three times a week.
(§4) Six human xenograft tumor models, including three ovarian carcinoma (SK-OV-3, OV-CAR-5 and OV-CAR-8), one pancreatic carcinoma (BxPC3), one lung carcinoma (NCI-H460), and one kidney carcinoma (Caki-1), were used to assess the antitumor activity of 1B3 in vivo. Athymic (nu/nu) mice (female, 7-8 weeks of age) were housed for 7-10 days before xenograft implantation. Each mouse was injected subcutaneously with 3-10×10^6 cells of SK-OV-3, OVCAR-5, OVCAR-8, Caki-1, BxPC3 or NCI-H460 tumor cells. When tumors reached approximately 250-300 mm^3, mice were randomized into groups of 10 to 12 animals each and treated by intraperitoneal injection, 2 to 3 times per week, with 1B3, DC101, or 1B3 in combination with DC101. Human IgG and/or USP saline were used as control groups. Tumor sizes and mouse body weight were measured twice a week. Tumor volume was calculated using the formula: π/6×(length×width^2), where length=longest diameter and width=diameter perpendicular to length. The ratio of average tumor volume in the treatment group versus that in the control group (T/C %) was calculated. Statistic analysis was performed by Student's t-test.
(§5) To study the antitumor effects of monotherapy with an anti-PDGFRβ antibody, mice were treated with 1B3, normal human IgG, or saline twice weekly by intraperitoneal injections. In SK-OV-3 model, tumor-bearing mice were given 1B3 at 6, 20, or 60 mg/kg dose.
(§6) Athymic nude mice bearing xenografted tumors of 300-350 mm^3 size were randomized and divided into four treatment groups (n=12/group), and were treated by intraperitoneal injections three times a week with saline, 1B3 (40 mg/kg), DC101 (40 mg/kg), or 1B3 (40 mg/kg) plus DC101 (40 mg/kg).
(§7) The five human xenograft tumor models described above (OVCAR-5 and OVCAR-8, BxPC3, NCI-H460, and Caki-1) were used to assess the antitumor activity of 2C5 in vivo.

hPDGFRβ = hPDGFRβ (Homo sapiens, UniProt P09619); assay: Antibody affinity determination (BIAcore, surface plasmon resonance); assay type: binding; conditions: one experiment
Experimental: as §1
As determined by BIAcore analysis, 2C5 binds to hPDGFRβ with similar binding characteristics as 1B3 binds to mPDGFRβ. […] However, whereas 1B3 binds to murine PDGFRβ but not human PDGFRβ, 2C5 binds to both proteins. (FIG. 6).

human PDGFRα = human PDGFRα (Homo sapiens, UniProt P16234); assay: Binding to PDGFRα
[3] = system: NCI-H460 lung carcinoma xenograft; assay type: in vivo; conditions: for Tumor Volume T/C %: NCI-H460 xenograft, monotherapy
Experimental: as §2, §3, §4, §5, §6, §7

human PDGFRα, sequence (P16234 24-1089): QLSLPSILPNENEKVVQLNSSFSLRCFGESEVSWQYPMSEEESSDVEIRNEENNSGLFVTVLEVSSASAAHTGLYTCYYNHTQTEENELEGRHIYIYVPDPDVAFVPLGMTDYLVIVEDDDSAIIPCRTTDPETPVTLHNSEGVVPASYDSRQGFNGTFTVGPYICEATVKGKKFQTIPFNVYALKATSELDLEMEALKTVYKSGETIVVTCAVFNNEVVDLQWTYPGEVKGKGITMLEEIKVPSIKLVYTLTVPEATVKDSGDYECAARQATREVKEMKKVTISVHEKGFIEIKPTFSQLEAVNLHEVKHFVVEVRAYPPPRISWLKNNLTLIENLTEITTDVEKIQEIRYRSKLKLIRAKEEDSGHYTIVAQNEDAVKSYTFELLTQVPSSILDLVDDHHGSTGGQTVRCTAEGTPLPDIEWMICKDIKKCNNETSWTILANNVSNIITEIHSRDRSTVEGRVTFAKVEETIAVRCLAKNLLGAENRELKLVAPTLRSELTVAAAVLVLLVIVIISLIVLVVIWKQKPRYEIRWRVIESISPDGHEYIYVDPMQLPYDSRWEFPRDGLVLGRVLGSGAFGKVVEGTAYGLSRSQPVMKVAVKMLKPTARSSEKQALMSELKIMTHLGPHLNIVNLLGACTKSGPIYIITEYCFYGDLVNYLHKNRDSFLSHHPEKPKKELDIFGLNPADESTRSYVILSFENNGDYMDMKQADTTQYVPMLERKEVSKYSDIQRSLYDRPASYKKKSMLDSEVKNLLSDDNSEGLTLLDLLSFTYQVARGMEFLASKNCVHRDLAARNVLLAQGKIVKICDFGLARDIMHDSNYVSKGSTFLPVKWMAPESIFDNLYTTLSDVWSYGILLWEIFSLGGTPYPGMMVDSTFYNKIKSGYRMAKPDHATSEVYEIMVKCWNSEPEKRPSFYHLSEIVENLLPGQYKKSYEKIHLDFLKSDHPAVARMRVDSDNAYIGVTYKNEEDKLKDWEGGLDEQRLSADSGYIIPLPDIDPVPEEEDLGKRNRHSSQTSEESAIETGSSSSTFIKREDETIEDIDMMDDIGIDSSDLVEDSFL
hPDGFRβ, sequence (P09619 33-1106): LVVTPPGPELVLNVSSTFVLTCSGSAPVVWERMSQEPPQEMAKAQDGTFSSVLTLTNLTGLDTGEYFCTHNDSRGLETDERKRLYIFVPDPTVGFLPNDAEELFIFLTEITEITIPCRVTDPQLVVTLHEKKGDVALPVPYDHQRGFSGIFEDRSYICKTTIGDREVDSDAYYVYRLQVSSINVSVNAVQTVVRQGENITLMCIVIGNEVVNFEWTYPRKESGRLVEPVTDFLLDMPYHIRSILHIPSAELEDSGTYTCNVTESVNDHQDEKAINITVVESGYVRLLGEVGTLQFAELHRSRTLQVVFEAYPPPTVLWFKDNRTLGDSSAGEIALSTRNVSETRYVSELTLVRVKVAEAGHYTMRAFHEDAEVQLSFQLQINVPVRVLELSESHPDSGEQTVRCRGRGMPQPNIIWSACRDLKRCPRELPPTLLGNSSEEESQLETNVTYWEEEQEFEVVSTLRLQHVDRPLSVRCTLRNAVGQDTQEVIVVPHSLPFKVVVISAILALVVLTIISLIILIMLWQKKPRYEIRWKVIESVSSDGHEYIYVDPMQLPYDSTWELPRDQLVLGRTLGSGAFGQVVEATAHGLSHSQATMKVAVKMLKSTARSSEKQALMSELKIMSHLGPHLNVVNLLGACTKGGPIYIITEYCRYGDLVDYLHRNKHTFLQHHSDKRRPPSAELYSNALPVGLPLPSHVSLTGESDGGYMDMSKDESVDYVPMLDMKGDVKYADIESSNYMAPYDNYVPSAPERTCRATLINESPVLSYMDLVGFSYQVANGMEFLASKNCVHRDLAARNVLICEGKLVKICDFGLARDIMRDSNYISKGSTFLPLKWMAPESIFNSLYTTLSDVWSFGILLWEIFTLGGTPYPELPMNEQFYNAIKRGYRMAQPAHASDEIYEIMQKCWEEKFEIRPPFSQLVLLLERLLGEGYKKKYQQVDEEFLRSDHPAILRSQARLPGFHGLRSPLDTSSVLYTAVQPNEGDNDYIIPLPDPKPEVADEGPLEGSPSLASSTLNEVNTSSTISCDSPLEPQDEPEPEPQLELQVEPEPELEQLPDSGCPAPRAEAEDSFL
mPDGFRβ, sequence (P05622 32-1098): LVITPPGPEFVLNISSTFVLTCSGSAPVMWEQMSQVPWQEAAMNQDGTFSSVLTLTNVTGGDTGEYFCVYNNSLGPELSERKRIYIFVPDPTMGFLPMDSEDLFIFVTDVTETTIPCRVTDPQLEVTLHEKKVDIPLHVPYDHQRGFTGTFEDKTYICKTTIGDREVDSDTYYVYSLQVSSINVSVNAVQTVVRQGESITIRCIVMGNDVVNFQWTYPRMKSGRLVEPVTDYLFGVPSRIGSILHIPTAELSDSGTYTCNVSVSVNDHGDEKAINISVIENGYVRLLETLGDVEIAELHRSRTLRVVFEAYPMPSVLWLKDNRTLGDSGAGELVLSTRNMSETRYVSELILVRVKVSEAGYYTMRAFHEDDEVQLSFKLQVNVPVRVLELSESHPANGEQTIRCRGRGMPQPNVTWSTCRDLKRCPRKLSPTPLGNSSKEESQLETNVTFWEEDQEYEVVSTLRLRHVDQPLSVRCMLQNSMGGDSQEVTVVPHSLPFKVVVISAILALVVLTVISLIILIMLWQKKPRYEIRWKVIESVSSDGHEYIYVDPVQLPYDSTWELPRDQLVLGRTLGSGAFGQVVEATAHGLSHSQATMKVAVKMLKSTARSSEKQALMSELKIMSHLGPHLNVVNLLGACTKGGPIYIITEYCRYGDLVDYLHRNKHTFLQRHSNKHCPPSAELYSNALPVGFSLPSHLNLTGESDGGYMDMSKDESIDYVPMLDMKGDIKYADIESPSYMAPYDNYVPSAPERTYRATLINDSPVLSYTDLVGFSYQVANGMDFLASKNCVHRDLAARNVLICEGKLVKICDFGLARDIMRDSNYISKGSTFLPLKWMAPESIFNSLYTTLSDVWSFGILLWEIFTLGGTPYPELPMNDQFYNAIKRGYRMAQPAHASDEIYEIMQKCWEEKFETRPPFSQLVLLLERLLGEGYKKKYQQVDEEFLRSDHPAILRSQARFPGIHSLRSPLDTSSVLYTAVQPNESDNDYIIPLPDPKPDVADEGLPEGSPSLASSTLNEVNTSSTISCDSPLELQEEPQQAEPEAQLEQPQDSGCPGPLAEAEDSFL

Molecule	inhibition of PDGF-BB-stimulated phosphorylation of Akt and p44/42 MAP kinase [1]	increase of affinity for mPDGFRβ of IgG over its Fab form (mPDGFRβ; BIAcore)	tumor regression, number of mice ([2]; BxPC3, 40 mg/kg each antibody i.p. three times a week)	antitumor activity ([2]; BxPC3, monotherapy 40 mg/kg i.p. three times a week)	Tumor Volume T/C % [2] [%]	Kd (hPDGFRβ) [nM]	binding to human PDGFRα (human PDGFRα)	T/C % on day 22 post treatment ([3]; NCI-H460, 40 mg/kg each antibody i.p. three times a week) [%]	tumor growth inhibition ([3]; NCI-H460, 60 mg/kg i.p. twice weekly)	Tumor Volume T/C % [3] [%]	Kd (mPDGFRβ; surface plasmon resonance, one experiment) [nM]
1B3: human anti-mouse PDGFRβ antibody from Fab phage display library, human κ/γ1 constant regions; SEQ ID NOS in Table 1 (antibody, listed as Homo sapiens, V domains shown, human kappa/gamma1 constant regions) VH: QVQLQESGGGLVKPGGSLRLSCAASGFTFSSYSMNWVRQAPGKGLEWVSSISSSSSYIYYADSVKGRFTISRDNSKNTLYLQMNSLRAEDTAVYYCAKGGRPLLVFDFWGQGTLVTVS VL: EIVMTQSPGTLSLSPGERATLSCRASQSVSSSYLAWYQQKPGQAPRLLIYDASKRATGIPARFSGSGSGTDFTLTISTLESEDSAVYYCQQRGYWPPITFGQGTRLEIKR	potently inhibited	approximately 57 times	no regressions	failed to show any antitumor activity	100	0.0417	did not bind	66	significantly slowed the growth	60	
2C5: PDGFRβ-specific human antibody binding both human and murine PDGFRβ; SEQ ID NOS in Table 1 (antibody, listed as Homo sapiens, V domains shown) VH: QVQLVQSGAEVKKPGSSVKVSCKASGGTFSSYAISWVRQAPGQGLEWMGRIIPILGIANYAQKFQGRVTITADKSTSTAYMELSSLRSEDTAVYYCARDMGSRNYYYFYWGQGTLVTVSS VL: EIVLTQSPATLSLSPGERATLSCRASQSVGRYLAWYQQKPGQAPRLLIYGASNRATGIPARFSGSGSGTDFTLTISSLEPEDFAVYYCQQRSNWPLTFGGGTKVEIK	potently inhibited				100	0.0136	does not bind			60	0.0605
